# “Also recorded” adds a separate entry of the source.
# Tests used:
# human-TRPV1 = human-TRPV1 (Homo sapiens, UniProt Q8NER1); format: cell-based; details: capsaicin 3 μM
# HEK cells = format: cell-based, human; details: 0.1% , positive control
# Source text: FIGS. 6A-6J: Ultrasound stimulation at 2.5 MPa is safe as assessed by intracellular uptake of propidium iodide. FIG. 6A: Image showing bright field (BF) image for GCaMP6f-HEK cells, and the corresponding GFP channel (FIG. 6B) and propidium iodide channel (FIG. 6C) before ultrasound stimulation. Multiple trials with ultrasound stimulation at 2.5 MPa 100 ms had no effect on the intracellular levels of propidium iodide (FIG. 6D) n=3 stims. FIG. 6E: Image showing HEK cells used for the positive control, including GFP channel (FIG. 6F) and propidium iodide channel before treatment (FIG. 6G). […] Time course for the propidium iodide signal for an ultrasound stimulated cell highlighted in FIG. 6A, shown in FIG. 6I, and for a cell treated with […] highlighted in FIG. 6E, shown in FIG. 6J. Scale bar, 20 μm.
# To facilitate rapid screening of ultrasound-triggered cellular responses, an optical imaging setup was aligned with a custom designed transducer. In particular, a single-crystal 6.91 MHz lithium niobate transducer (FIG. 1A) that lacks hysteresis and generates minimal heat as it converts electrical input into mechanical energy was designed. Such a transducer reduced ultrasound-triggered temperature changes. […]
# [1] = system: mouse primary cortical neurons; assay: GCaMP6f calcium imaging of primary cortical neurons under ultrasound or AITC; format: cell-based
# [2] = Rotarod motor learning task; details: cortical expression; 5 days
# rat primary neurons = assay: Whole-cell patch clamp (voltage and current clamp) of primary neurons under ultrasound; format: cell-based
# [3] = system: layer V motor cortical neurons; assay: c-fos expression in cortical neurons after ultrasound in vivo; parameters: species or system mouse
# [4] = system: Human Embryonic Kidney 293T (HEK) cells; assay: Ultrasound-evoked GCaMP6f calcium response of HEK cells transfected with candidate channels (screen and TRPA1 variants); format: cell-based; details: for Response to ultrasound stimulation (cells activated, GCaMP6f): transfected GCaMP6f HEK cells, 6.91 MHz, screen at 100 msecs, 1.5 MPa
# excitable HEK cells = assay: Patch-clamp electrophysiology of excitable HEK cells expressing TRPA1 channel polypeptides under ultrasound; format: cell-based, human
# [5] = hsTRPA1-expressing primary neurons, ultrasound
# Chain of human-TRPV1 (Q8NER1 whole entry): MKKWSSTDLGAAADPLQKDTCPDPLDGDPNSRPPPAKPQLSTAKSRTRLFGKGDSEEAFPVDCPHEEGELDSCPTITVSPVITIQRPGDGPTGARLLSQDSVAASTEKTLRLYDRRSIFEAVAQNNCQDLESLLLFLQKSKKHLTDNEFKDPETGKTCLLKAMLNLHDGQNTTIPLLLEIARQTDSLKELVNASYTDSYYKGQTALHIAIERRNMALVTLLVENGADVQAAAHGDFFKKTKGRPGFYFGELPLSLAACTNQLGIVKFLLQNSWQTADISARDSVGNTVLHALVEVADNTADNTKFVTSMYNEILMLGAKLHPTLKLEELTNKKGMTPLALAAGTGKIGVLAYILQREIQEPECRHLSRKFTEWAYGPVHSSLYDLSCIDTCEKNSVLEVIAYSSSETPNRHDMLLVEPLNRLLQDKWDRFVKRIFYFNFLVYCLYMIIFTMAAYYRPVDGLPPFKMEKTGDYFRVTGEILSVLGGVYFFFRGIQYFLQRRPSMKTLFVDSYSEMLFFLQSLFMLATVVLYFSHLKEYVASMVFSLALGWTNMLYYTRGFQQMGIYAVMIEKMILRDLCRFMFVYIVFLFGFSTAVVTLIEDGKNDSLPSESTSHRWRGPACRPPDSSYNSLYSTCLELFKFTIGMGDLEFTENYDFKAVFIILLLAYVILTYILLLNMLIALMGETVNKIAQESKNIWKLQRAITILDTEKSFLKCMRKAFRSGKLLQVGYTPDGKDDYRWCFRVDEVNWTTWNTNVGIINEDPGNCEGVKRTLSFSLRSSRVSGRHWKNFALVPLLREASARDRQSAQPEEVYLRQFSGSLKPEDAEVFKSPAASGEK
molecule,measurement,setting,value
COc1cc(CNC(=O)CCCC/C=C/C(C)C)ccc1O [capsaicin],Response of HEK cells expressing human TRPV1 to compound,human-TRPV1,respond
Triton-X,Intracellular propidium iodide,HEK cells,significant increase of intracellular propidium iodide
"hsTRPA1: human TRPA1 channel protein Clone 63 (non-mutated/WT), SEQ ID NO: 4; RefSeq XP_016869435.1 (protein, listed as Homo sapiens) MKRSLRKMWRPGEKKEPQGVVYEDVPDDTEDFKESLKVVFEGSAYGLQNFNKQKKLKRCDDMDTFFLHYAAAEGQIELMEKITRDSSLEVLHEMDDYGNTPLHCAVEKNQIESVKFLLSRGANPNLRNFNMMAPLHIAVQGMNNEVMKVLLEHRTIDVNLEGENGNTAVIIACTTNNSEALQILLKKGAKPCKSNKWGCFPIHQAAFSGSKECMEIILRFGEEHGYSRQLHINFMNNGKATPLHLAVQNGDLEMIKMCLDNGAQIDPVEKGRCTAIHFAATQGATEIVKLMISSYSGSVDIVNTTDGCHETMLHRASLFDHHELADYLISVGADINKIDSEGRSPLILATASASWNIVNLLLSKGAQVDIKDNFGRNFLHLTVQQPYGLKNLRPEFMQMQQIKELVMDEDNDGCTPLHYACRQGGPGSVNNLLGFNVSIHSKSKDKKSPLHFAASYGRINTCQRLLQDISDTRLLNEGDLHGMTPLHLAAKNGHDKVVQLLLKKGALFLSDHNGWTALHHASMGGYTQTMKVILDTNLKCTDRLDEDGNTALHFAAREGHAKAVALLLSHNADIVLNKQQASFLHLALHNKRKEVVLTIIRSKRWDECLKIFSHNSPGNKCPITEMIEYLPECMKVLLDFCMLHSTEDKSCRDYYIEYNFKYLQCPLEFTKKTPTQDVIYEPLTALNAMVQNNRIELLNHPVCKEYLLMKWLAYGFRAHMMNLGSYCLGLIPMTILVVNIKPGMAFNSTGIINETSDHSEILDTTNSYLIKTCMILVFLSSIFGYCKEAGQIFQQKRNYFMDISNVLEWIIYTTGIIFVLPLFVEIPAHLQWQCGAIAVYFYWMNFLLYLQRFENCGIFIVMLEVILKTLLRSTVVFIFLLLAFGLSFYILLNLQDPFSSPLLSIIQTFSMMLGDINYRESFLEPYLRNELAHPVLSFAQLVSFTIFVPIVLMNLLIGLAVGDIAEVQKHASLKRIAMQVELHTSLEKKLPLWFLRKVDQKSTIVYPNKPRSGGMLFHIFCFLFCTGEIRQEIPNADKSLEMEILKQKYRLKDLTFLLEKQHELIKLIIQKMEIISETEDDDSHCSFQDRFKKEQMEQRNSRWNTVLRAVKAKTHHLEP",Ultrasound-triggered intracellular calcium in expressing neurons versus CRE control,"[1]; E18 mouse primary cortical neurons, AAV infected, 100 ms, 2.5 MPa",significant increase in intracellular calcium
same,Response duration,[1]; [5],2 to 30 s
same,Response latency after stimulus onset (majority of neurons),[1]; [5],500 to 900 ms
same,Repeated ultrasound stimulation: cell health and calcium flux,"[1]; repetitive 100 ms, 2.5 MPa ultrasound stimulation",without apparent deleterious effects on cell health or a substantial decrement in calcium flux
same,Ability to learn the rotarod task versus GFP-expressing animals,[2],comparable ability to learn the rotarod task
same,Ultrasound-evoked action potentials in assayed neurons,rat primary neurons; current clamp,all assayed hsTRPA1-expressing neurons showed ultrasound-evoked action potentials
same,Lowest ultrasound pressure triggering action potentials,"rat primary neurons; current clamp, 6.91 MHz",0.2 MPa
same,Current responses to ultrasound in voltage clamp,"rat primary neurons; whole-cell, within a few milliseconds of ultrasound stimulation, 0.25 MPa range",> 400 pA
same,c-fos expression in the auditory cortex after ultrasound,[3]; hsTRPA1-expressing mice,not detected
same,Number of c-fos positive cells in cortical motor neurons after ultrasound,[3]; hsTRPA1-expressing transgenic mice versus GFP,significantly increased the number of c-fos positive cells
same,Responsiveness to ultrasound stimulation among TRPA channels from different species (% of cells showing a response),"[4]; HEK cells, 100 ms ultrasound pulse at 3 MPa 6.91 MHz",the most responsive to ultrasound stimulation
same,"Response to ultrasound stimulation (cells activated, GCaMP6f)",[4],robust responses; also recorded: selectively activated by ultrasound stimulation in a pressure- and duration-dependent manner
same,"Response to ultrasound stimulation (cells activated, GCaMP6f)",[4]; listed as human homolog,the best candidate
same,Electrical properties (I-V curve) versus dTom controls,excitable HEK cells,no significant disruptions in their electrical properties
same,Basal rate of activity before ultrasound versus dTom controls,excitable HEK cells; cell-attached,higher basal rates of activity
same,Inward currents in response to ultrasound versus dTom controls,excitable HEK cells; cell-attached,significantly larger and more numerous
same,Electrophysiological responses to ultrasound versus GFP control,excitable HEK cells; patch clamp assay,Significant electrophysiological responses to ultrasound
